Experimental data as given in patent US20230322888A1.

Legend:
Test in all cases: cell-based or functional assay
[1] = molecular target: cynomolgus monkey GLP1 receptor (cynomolgus monkey) (UniProt F8V479)
[2] = molecular target: mouse GLP1 receptor (mouse) (UniProt O35659)
[3] = molecular target: human GLP1 receptor (human) (UniProt P43220)
Sequence of human GLP1 receptor (human) (P43220 24-463): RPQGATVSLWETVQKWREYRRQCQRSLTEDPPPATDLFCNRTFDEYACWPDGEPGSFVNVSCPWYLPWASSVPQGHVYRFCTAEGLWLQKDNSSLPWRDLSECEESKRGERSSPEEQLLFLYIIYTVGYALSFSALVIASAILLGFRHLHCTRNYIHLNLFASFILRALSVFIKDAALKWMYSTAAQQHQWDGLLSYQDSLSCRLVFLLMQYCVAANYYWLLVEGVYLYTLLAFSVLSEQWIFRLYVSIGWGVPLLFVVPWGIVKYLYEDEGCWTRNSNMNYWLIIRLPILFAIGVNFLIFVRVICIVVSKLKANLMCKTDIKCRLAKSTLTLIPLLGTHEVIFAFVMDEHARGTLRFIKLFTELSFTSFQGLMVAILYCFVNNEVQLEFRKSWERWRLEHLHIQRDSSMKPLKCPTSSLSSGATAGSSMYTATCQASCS

Sequence of cynomolgus monkey GLP1 receptor (cynomolgus monkey) (F8V479 entry or part of it): as the sequence (P43220 24-463) above, with S112N, F120S, S202G, L205V, L237F, W241R, I249V counted along it
Sequence of mouse GLP1 receptor (mouse) (O35659 22-463): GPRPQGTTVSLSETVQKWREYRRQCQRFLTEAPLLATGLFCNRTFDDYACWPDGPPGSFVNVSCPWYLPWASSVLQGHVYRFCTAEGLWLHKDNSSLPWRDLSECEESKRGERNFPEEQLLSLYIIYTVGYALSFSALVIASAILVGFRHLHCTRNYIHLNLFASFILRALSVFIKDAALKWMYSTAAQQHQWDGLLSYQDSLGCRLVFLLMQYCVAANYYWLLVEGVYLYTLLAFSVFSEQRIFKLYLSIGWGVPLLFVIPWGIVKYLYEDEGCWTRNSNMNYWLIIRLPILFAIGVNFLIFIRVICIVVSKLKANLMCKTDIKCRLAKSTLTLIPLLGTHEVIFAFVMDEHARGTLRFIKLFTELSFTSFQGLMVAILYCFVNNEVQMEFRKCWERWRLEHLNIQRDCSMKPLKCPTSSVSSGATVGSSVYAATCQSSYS
Sequence of Albiglutide (chain): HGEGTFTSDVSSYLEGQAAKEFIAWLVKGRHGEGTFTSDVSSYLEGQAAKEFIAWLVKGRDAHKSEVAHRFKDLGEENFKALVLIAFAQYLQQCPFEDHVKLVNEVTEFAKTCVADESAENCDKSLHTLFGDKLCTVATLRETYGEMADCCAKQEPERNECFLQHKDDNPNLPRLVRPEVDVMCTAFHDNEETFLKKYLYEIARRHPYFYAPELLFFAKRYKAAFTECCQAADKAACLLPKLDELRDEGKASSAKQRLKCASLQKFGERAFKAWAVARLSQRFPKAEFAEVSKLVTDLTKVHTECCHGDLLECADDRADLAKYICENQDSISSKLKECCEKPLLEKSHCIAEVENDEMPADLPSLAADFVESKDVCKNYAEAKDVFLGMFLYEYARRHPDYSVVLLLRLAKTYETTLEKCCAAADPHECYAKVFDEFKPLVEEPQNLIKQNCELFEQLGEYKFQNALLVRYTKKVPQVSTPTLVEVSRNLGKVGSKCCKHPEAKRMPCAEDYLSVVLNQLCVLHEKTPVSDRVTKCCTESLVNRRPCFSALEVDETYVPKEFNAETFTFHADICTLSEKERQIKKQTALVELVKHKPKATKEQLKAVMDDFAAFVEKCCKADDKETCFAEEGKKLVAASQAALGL
Sequence of Dulaglutide (Fc fusion) (chain): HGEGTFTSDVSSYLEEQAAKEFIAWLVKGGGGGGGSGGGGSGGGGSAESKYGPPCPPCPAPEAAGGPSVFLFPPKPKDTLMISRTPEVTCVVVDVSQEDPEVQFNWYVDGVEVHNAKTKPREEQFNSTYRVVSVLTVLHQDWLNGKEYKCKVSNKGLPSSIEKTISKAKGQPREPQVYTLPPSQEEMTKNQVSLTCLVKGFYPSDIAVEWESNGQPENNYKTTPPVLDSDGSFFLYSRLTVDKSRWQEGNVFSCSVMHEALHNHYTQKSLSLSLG

cAMP induction CGLP1R EC50 [1]	cAMP induction mGLP1R EC50 [2]	cAMP induction hGLP1R EC50 [3]	Substance
0.079 nM	0.052 nM		Liraglutide (peptide)
	0.012 nM		GLP1 (from UniProt P01275 98-127) (peptide)
1.76 nM	1.49 nM	0.981 nM	Albiglutide
0.045 nM	0.02 nM	0.038 nM	Dulaglutide (Fc fusion)
